Our source for the kcat · Km^-1 and Specific Activity (HPE · mg^-1) values is US5801039.

For assay [1], the target named is T1, succinyl-L-alanyl-L-alanyl-L-prolyl-L-phenylalanyl-p-nitroanilide.
T1 sequence (peptide, N-terminal succinyl; C-terminal p-nitroanilide): AAPF

In assay [2] the target is casein (prepared according to Hammarsten; Merck, Darmstadt, #2242).

Changes are numbered by the printed parent chain. In names and notes the source's numbering stands.

B1: Bacillus lentus DSM 5483 alkaline protease (BLAP), wild type enzyme (enzyme)
chain: AQSVPWGISRVQAPAAHNRGLTGSGVKVAVLDTGISTHPDLNIRGGASFVPGEPSTQDGNGHGTHVAGTIAALNNSIGVLGVAPSAELYAVKVLGADGRGAISSIAQGLEWAGNNGMHVANLSLGSPSPSATLEQAVNSATSRGVLVVAASGNSGASSISYPARYANAMAVGATDQNNNRASFSQYGAGLDIVAPGVNVQSTYPGSTYASLNGTSMATPHVAGAAALVKQKNPSWSNVQIRNHLKNTATSLGSTNLYGSGLVNAEAATR
Take B1: in assay [1], the kcat · Km^-1 was found to be 297000 M⁻¹ s⁻¹. In assay [2], this molecule yielded a Specific Activity (HPE · mg^-1) of 4000 HPE · mg^-1.

B2: BLAP mutant F49 (S3T + V4I + A188P + V193M + V199I + L211D) (enzyme)
chain: B1 chain with S3T, V4I, A188P, V193M, V199I, L211D
As for B2, in assay [1], the kcat · Km^-1 is 11000 M⁻¹ s⁻¹. Also, the Specific Activity (HPE · mg^-1) in assay [2] came to 4610 HPE · mg^-1.

B3: BLAP mutant F43 (S3T + V4I + R99G + A188P + V193M + V199I) (enzyme)
chain: B1 chain with S3T, V4I, R99G, A188P, V193M, V199I
With B3, the kcat · Km^-1 in assay [1] was 99000 M⁻¹ s⁻¹. In addition, the Specific Activity (HPE · mg^-1) in assay [2] came out at 3780 HPE · mg^-1.

B4: BLAP variant M131 (S3T + V4I + A188P + V193M + V199I) (enzyme)
chain: B1 chain with S3T, V4I, A188P, V193M, V199I
As for B4, the kcat · Km^-1 in assay [1] came out at 156000 M⁻¹ s⁻¹. Moreover, the Specific Activity (HPE · mg^-1) in assay [2] was determined as 3670 HPE · mg^-1.

B5: BLAP mutant F44 (S3T + V4I + R99A + A188P + V193M + V199I) (enzyme)
chain: B1 chain with S3T, V4I, R99A, A188P, V193M, V199I
Turning to B5, in assay [1], the kcat · Km^-1 is 103000 M⁻¹ s⁻¹. In addition, the Specific Activity (HPE · mg^-1) in assay [2] stood at 3750 HPE · mg^-1.

B6: BLAP mutant F54 (S3T + V4I + R99G + A188P + V193M + V199I + L211D) (enzyme)
chain: B1 chain with S3T, V4I, R99G, A188P, V193M, V199I, L211D
As for B6, the kcat · Km^-1 in assay [1] amounted to 1300 M⁻¹ s⁻¹. The Specific Activity (HPE · mg^-1) in assay [2] was 2510 HPE · mg^-1.

B7: BLAP mutant F45 (S3T + V4I + R99S + A188P + V193M + V199I) (enzyme)
chain: B1 chain with S3T, V4I, R99S, A188P, V193M, V199I
Consider B7, for which the kcat · Km^-1 in assay [1] amounted to 68000 M⁻¹ s⁻¹. The molecule also gave a Specific Activity (HPE · mg^-1) in assay [2] of 3710 HPE · mg^-1.

B8: BLAP mutant F55 (S3T + V4I + S154E + A188P + V193M + V199I + L211D) (enzyme)
chain: B1 chain with S3T, V4I, S154E, A188P, V193M, V199I, L211D
Regarding B8, the kcat · Km^-1 in assay [1] was determined as 2600 M⁻¹ s⁻¹. Besides, in assay [2], the Specific Activity (HPE · mg^-1) is 3200 HPE · mg^-1.

B9: BLAP mutant F11 (S3T + R99S + A188P + V193M + V199I) (enzyme)
chain: B1 chain with S3T, R99S, A188P, V193M, V199I
For B9, in assay [1], the kcat · Km^-1 is 92000 M⁻¹ s⁻¹. Further, the Specific Activity (HPE · mg^-1) in assay [2] was determined as 3760 HPE · mg^-1.

B10: BLAP mutant F46 (S3T + V4I + S154E + A188P + V193M + V199I) (enzyme)
chain: B1 chain with S3T, V4I, S154E, A188P, V193M, V199I
B10: in assay [1], the kcat · Km^-1 came to 179000 M⁻¹ s⁻¹. In assay [2], the Specific Activity (HPE · mg^-1) came to 3180 HPE · mg^-1.

B11: BLAP mutant F47 (S3T + V4I + S154D + A188P + V193M + V199I) (enzyme)
chain: B1 chain with S3T, V4I, S154D, A188P, V193M, V199I
For the molecule B11, the kcat · Km^-1 in assay [1] stood at 124000 M⁻¹ s⁻¹. For the same molecule, in assay [2], the Specific Activity (HPE · mg^-1) was determined as 3610 HPE · mg^-1.
